B1: Methionine adenosyltransferase α1 (MATα1), endogenous human (natural protein)
chain: not shown
notes: Methionine adenosyltransferase α1 (MATα1), human, endogenous in hepatocytes and liver; source: endogenous, human hepatocyte lysate and human liver lysates (normal, ALD)
B2: Methionine adenosyltransferase α1 (MATα1), endogenous mouse (natural protein)
chain: not shown
notes: Methionine adenosyltransferase α1 (MATα1), mouse, endogenous; source: endogenous, mouse hepatocyte lysate, mouse liver whole lysates and cytosolic fractions, AML-12 lysate

How the values were obtained:
Settings in all cases: partners not purified
[1] = molecular target: T1, Peptidyl-prolyl cis/trans isomerase NIMA-interacting 1 (PIN1), endogenous human (human (endogenous in human hepatocytes, …, UniProt Q13526 1-163)); test: co-IP; human normal and end-stage cirrhotic ALD liver lysates; IP with anti-PIN1 or anti-MATα1 antibodies, western blot against MATα1 or PIN1, densitometry
T1 construct: source: endogenous, human hepatocyte lysate, human liver lysates and HepG2 lysate

[2] = molecular target: T2, Peptidyl-prolyl cis/trans isomerase NIMA-interacting 1 (PIN1), endogenous mouse (mouse (endogenous in mouse hepatocytes, …, UniProt Q9QUR7 1-165)); test: co-IP; whole liver lysates of pair-fed and ethanol-fed mice (NIAAA model); IP with anti-PIN1 or anti-MATα1 antibodies, western blot against MATα1 or PIN1, densitometry
T2 construct: source: endogenous, mouse hepatocyte lysate, mouse liver whole lysates and cytosolic fractions, AML-12 lysate

[3] = molecular target: T2, Peptidyl-prolyl cis/trans isomerase …; test: co-IP; AML-12 cell lysates, control or ethanol (100 mM, 48 h); IP with anti-PIN1 or anti-MATα1 antibodies, western blot, densitometry

T2 sequence (Q9QUR7 whole entry): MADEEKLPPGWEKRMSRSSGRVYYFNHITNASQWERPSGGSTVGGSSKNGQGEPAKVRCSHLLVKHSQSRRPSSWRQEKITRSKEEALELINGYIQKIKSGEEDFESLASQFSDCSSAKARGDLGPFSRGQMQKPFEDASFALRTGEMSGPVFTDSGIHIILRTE
T1 sequence (Q13526 whole entry): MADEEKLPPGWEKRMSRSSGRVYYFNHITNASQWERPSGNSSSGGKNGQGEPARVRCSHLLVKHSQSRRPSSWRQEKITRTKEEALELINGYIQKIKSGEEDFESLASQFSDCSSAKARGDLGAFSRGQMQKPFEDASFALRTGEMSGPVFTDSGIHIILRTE

Binder | fold of co-precipitated signal, alcoholic cirrhotic livers against normal human livers [1] [fold] | fold of co-precipitated signal, ethanol-fed against pair-fed mouse livers [2] [fold] | fold of co-precipitated signal, ethanol-treated against control AML-12 cells [3] [fold]
B1 | 3.3 | – | –
B2 | – | 2 | 3.5

Source: PMC8799735, “Depletion of mitochondrial methionine adenosyltransferase α1 triggers mitochondrial dysfunction in alcohol-associated liver disease” (Nature Communications, 2022)
